A word on the IC50: it is the concentration that gives 50% inhibition. A high value points to lower potency.

These results are taken from patent US5942663A, “Biocidal proteins” (Zeneca Limited, priority 1991, dated 1999).

One data set relates to Fusarium culmorum. Description: Stability of the antifungal activity of the Mj-AMPs. In kind it is cell-based. On the procedure:
Antifungal activity was measured by microspectrophotometry as previously described (Broekaert, WF et al; 1990; FEMS Microbiol Lett, 69, 55-60). Routinely, tests were performed with 20 μl of a (filter-sterilized) test solution and 80 μl of a fungal spore suspension (2×10^4 spores/ml) in half strength Potato Dextrose Broth (Difco). Control microcultures contained 20 μl of (sterile) distilled water and 80 μl of the fungal spore suspension. Unless otherwise stated the test organism was Fusarium culmorum and incubation was done at 25° C. for 48 hours. Percent growth inhibition is defined as 100 times the ratio of the corrected absorbance of the control microculture minus the corrected absorbance of the test microculture over the corrected absorbance at 595 nm of the control microculture. The corrected absorbance values equal the absorbance at 595 nm of the culture measured after 48 hours minus the absorbance at 595 nm measured after 30 min. Values of growth inhibition lower than 10% are not indicated on the chromatograms.
Table 1 summarises the results of further testing of the stability of the antifungal activity of the Mj-AMPs. Tests for antifungal activity were performed with 20 μl samples diluted five-fold with growth medium containing Fusarium culmorum spores (2×10^4 spores/ml), according to the assay method given in Example 2. Control samples contained either Mj-AMP1 at 500 μg/ml or Mj-AMP2 at 100 μg/ml in 10 mM sodium phosphate buffer (pH 7). Reduction was done by addition of DTT at 2.5 mM followed by incubation at 37° C. for 2 hours. pH stability was tested in the following buffers: 20 mM glycine-HCl (pH 2 and 3); 20 mM diethanolamine-HCl (pH 10); and 20 mM glycine-NaOH (pH 11). After 1 hour of incubation in the appropriate buffers the samples were dialyzed for 16 hours against 10 mm sodium phosphate buffer (pH 7). For digestions, proteases were added at 100 μg/ml and incubated at 37° C. for 16 hours.

The test system of the next data set is Venturia inaequalis. In kind it is cell-based. The note with it: V inaequalis, 10 days of incubation.

No end group written: not given here.

Regarding “Mj-AMP1: antimicrobial protein from Mirabilis jalapa seeds, dimer of two 4 kDa subunits, 37 residues, SEQ ID NO:1 (QCIGNGGRCNENVGPPYCCSGFCLRQPGQGYGYCKNR; cysteine pairing not given here; also: homodimer)”, the “Relative antifungal activity (shown as % of control activity)” value with Fusarium culmorum (80° C., 10 min) is 100 % of control activity; in the data set with Fusarium culmorum (90° C., 10 min), 100 % of control activity; in the data set on Fusarium culmorum (100° C., 10 min), 100 % of control activity; with Fusarium culmorum (Chymotrypsin digestion, 100 μg/ml, 37° C., 16 hours), 12 % of control activity; in the data set on Fusarium culmorum (Control: Mj-AMP1 500 μg/ml or Mj-AMP2 100 μg/ml in 10 mM sodium phosphate buffer pH 7) it was 100 % of control activity; with Fusarium culmorum (Pronase E digestion, 100 μg/ml, 37° C., 16 hours) it was 50 % of control activity. For the same substance, the “Relative antifungal activity (shown as % of control activity)” value is reported as 100 % of control activity with Fusarium culmorum (Proteinase K digestion, 100 μg/ml, 37° C., 16 hours); < 6 % of control activity with Fusarium culmorum (Reduction: DTT 2.5 mM, 37° C., 2 hours); 75 % of control activity in the data set with Fusarium culmorum (Trypsin digestion, 100 μg/ml, 37° C., 16 hours); 100 % of control activity with Fusarium culmorum (pH 2, 60 min); 100 % of control activity in the data set with Fusarium culmorum (pH 3, 60 min); 100 % of control activity with Fusarium culmorum (pH 10, 60 min). In the data set with Fusarium culmorum (pH 11, 60 min), the “Relative antifungal activity (shown as % of control activity)” value was 100 % of control activity. Also, the “Sensitivity to protease (in words)” value in the data set with Fusarium culmorum (chymotrypsin) was “sensitive”; in the data set on Fusarium culmorum (pronase E), “resisted almost completely”; in the data set on Fusarium culmorum (proteinase K) it was “resisted almost completely”; in the data set on Fusarium culmorum (trypsin), “resisted almost completely”. Besides, in the data set on Venturia inaequalis, the IC50 was found to be 12 µg/mL.
